# Legend:
# Assay in all cases: FRET or BRET; time-resolved FRET (Cisbio); FcγRs expressed on HEK293 cells (Tb donor cells); IgG-d2 acceptor conjugate displaced by the test antibodies; EC50 by the manufacturer's protocol
# [1] = molecular target: FcγR3A (CD16aF158) (human) (UniProt P08637)
# FcγR1 (CD64) (human) = FcγR1 (CD64) (human) (UniProt P12314)
# [2] = molecular target: FcγR2A (CD32aH131) (human) (UniProt P12318)
# FcγR2B (human) = FcγR2B (human) (UniProt P31994)
# [3] = molecular target: FcγR2A (CD32aR131) (human)
# Sequence of FcγR2A (CD32aR131) (human) (P12318 34-317 H167R): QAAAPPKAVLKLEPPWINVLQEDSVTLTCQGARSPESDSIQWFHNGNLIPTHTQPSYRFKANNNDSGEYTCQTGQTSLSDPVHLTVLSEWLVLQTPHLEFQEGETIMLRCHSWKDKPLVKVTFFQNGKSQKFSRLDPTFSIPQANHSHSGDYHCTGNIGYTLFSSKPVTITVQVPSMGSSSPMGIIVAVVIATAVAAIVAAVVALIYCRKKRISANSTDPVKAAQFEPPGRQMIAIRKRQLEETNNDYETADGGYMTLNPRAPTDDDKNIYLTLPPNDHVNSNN
# Sequence of FcγR2A (CD32aH131) (human) (P12318 34-317): as the sequence (P12318 34-317 H167R) above, with R134H counted along it
# Sequence of FcγR1 (CD64) (human) (P12314 16-374): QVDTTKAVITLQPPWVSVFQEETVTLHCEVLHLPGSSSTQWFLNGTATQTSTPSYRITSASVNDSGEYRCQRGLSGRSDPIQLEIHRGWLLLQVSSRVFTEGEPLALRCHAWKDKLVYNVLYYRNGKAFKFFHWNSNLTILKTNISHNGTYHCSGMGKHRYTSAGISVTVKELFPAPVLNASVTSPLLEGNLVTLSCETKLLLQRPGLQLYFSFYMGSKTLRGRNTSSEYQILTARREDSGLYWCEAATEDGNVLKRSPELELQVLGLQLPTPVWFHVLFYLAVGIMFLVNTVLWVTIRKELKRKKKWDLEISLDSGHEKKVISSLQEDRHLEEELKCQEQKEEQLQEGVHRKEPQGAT
# Sequence of FcγR2B (human) (P31994 43-310): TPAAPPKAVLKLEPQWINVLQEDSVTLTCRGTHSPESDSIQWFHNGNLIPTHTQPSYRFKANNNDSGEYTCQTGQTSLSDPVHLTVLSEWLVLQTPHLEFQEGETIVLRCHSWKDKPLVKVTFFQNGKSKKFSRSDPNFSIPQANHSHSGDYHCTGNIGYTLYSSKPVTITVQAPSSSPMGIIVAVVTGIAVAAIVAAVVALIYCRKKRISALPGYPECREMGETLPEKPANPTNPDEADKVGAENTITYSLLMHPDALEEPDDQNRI
# Sequence of FcγR3A (CD16aF158) (human) (P08637 17-254): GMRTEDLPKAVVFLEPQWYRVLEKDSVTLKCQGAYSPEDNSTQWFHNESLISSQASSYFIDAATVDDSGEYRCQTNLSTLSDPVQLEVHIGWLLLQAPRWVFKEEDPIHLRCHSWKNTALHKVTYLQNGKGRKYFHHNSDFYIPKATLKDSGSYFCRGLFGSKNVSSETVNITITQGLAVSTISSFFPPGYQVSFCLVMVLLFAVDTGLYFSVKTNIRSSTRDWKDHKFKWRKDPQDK
Substance,EC50 [1],EC50 (FcγR1 (CD64) (human)),EC50 [2],EC50 (FcγR2B (human)),EC50 [3]
BMS-986351 (antibody),1200 nM,0.8 nM,200 nM,2480 nM,–
Rituximab (antibody),–,0.8 nM,361 nM,–,194 nM

# From publication PMC10883291
